Results published in paper PMC3195437 (Biochemical Journal, 2011).

Molecular target: the molecule itself
Assay: SEC

Protein	stoichiometry N
rHhoBSA (recombinant, N-terminally truncated, proteolytically inactive HhoB of Synechocystis sp. PCC 6803, Ser258 replaced by alanine) (enzyme, UniProt P73940 51-416, looked up) SLTPAPVESNYRSALPLTLPRSAQDDQELNFIARAVQKIGPAVVRIDSERTAVSQGGPMGDQPFFRRFFGEEMPPNPDPREQGTGSGFILSSDGEVLTNAHVVEGASTVKVTLKDGSVLEGKVMGIDTMTDVAVVKVEAENLPVVEIGQSDRLQPGEWAIAIGNPLGLDNTVTVGIISALGRSSSEVGVPDKRVRFIQTDAAINPGNAGGPLLNAKGEVIGVNTAIRADAQGLGFAIPIQTAQNVAENLFTKGKMEHPYLGIHMVTLTPEMTKQLRTSGELPAGVTADTGVLIIQVSPGSPAAQAGLAPGDIILEVGGMGVKTATDVQERVEVSQIGEPLAIAVKRGQKPQMMAVRPGPFPEDLGQ	3
rHtrASA (recombinant, N-terminally truncated, proteolytically inactive HtrA of Synechocystis sp. PCC 6803, Ser296 replaced by alanine) (enzyme, UniProt P73354 94-452, looked up) SIAPANESLATNLQSRLSPREPSNFVVDVVESTGPAVVRINAQKTVKSQVPQAFNDPFLQRFFGSQMPPMPNERVQRGTGSGFIVSNDGKIFTNAHVVDGADEVTVTLKDGRSFPGRVMGSDPSTDVAVVKIEAGDLPTVALGDSDHLQVGEWAIAIGNPLGLDNTVTTGILSATGRRSADIGVPDKRVEFIQTDAAINPGNAGGPLLNADGQVIGMNTAIIQNAQGIGFAIPINKAQEIAQQLIATGKVEHAYLGIQMVTMTPELQSQIRQETGMNIPVDKGVVIMQVMPNSPAAIAKLEQGDVLQSLQGQPVENAEQVQSLVGKLAVGDEVELGILRNGQQQNLTVTIGALPSAPPQ	3
